IntAct's records for PubMed 17357085

B1: Homeobox protein SIX5 (Homo sapiens), Q8N196 (parent)
chain: MATLPAEPSAGPAAGGEAVAAAAATEEEEEEARQLLQTLQAAEGEAAAAAGAGAGAAAAGAEGPGSPGVPGSPPEAASEPPTGLRFSPEQVACVCEALLQAGHAGRLSRFLGALPPAERLRGSDPVLRARALVAFQRGEYAELYRLLESRPFPAAHHAFLQDLYLRARYHEAERARGRALGAVDKYRLRKKFPLPKTIWDGEETVYCFKERSRAALKACYRGNRYPTPDEKRRLATLTGLSLTQVSNWFKNRRQRDRTGAGGGAPCKSESDGNPTTEDESSRSPEDLERGAAPVSAEAAAQGSIFLAGTGPPAPCPASSSILVNGSFLAASGSPAVLLNGGPVIINGLALGEASSLGPLLLTGGGGAPPPQPSPQGASETKTSLVLDPQTGEVRLEEAQSEAPETKGAQVAAPGPALGEEVLGPLAQVVPGPPTAATFPLPPGPVPAVAAPQVVPLSPPPGYPTGLSPTSPLLNLPQVVPTSQVVTLPQAVGPLQLLAAGPGSPVKVAAAAGPANVHLINSGVGVTALQLPSATAPGNFLLANPVSGSPIVTGVALQQGKIILTATFPTSMLVSQVLPPAPGLALPLKPETAISVPEGGLPVAPSPALPEAHALGTLSAQQPPPAAATTSSTSLPFSPDSPGLLPNFPAPPPEGLMLSPAAVPVWSAGLELSAGTEGLLEAEKGLGTQAPHTVLRLPDPDPEGLLLGATAGGEVDEGLEAEAKVLTQLQSVPVEEPLEL
partner: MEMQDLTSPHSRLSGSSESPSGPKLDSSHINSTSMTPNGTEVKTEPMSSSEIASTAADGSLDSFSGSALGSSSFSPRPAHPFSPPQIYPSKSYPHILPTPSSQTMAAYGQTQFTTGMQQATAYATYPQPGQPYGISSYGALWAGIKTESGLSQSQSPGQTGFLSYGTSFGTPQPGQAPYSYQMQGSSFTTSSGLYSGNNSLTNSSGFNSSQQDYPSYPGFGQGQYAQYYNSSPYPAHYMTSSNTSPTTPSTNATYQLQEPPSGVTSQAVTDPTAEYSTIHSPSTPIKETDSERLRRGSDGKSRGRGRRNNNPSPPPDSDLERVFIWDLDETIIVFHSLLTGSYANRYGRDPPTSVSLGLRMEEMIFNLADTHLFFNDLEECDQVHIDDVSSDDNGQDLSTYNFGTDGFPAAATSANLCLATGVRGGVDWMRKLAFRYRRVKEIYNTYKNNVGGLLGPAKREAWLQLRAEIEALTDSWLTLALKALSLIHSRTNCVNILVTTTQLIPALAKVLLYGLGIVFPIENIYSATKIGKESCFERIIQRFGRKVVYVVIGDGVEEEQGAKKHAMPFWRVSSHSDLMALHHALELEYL

Variants of: B1
Conditions: with eya1_mouse Eya1, P97767

| Variant | effect of a mutation on the interaction |
| --- | --- |
| T552M | decreasing interaction |
| A158T | decreasing interaction |
